{
  "source": "patent US20020193568",
  "key": {"[1]": {"target": "LacI Pro320Ala Pro320Ala (Escherichia coli) (UniProt P03023)", "settings": "wild-type inducer responsivity"}, "[2]": {"target": "lac repressor (LacI) wild-type (Escherichia coli) (UniProt P03023)", "settings": "no inducer; assay method not stated; cited from earlier work"}, "[3]": {"target": "LacI Gln60Gly (Escherichia coli) (UniProt P03023)"}},
  "note": "Where two headings read alike, the source gives them in different places.",
  "data": [
    {"substance": "lac operator DNA (LacO)", "values": [
      {"measurement": "binding signal (fold higher affinity than wild-type)", "setting": "[1]", "result": 10}
    ]},
    {"substance": "lac operator O1 (LacO)", "values": [
      {"measurement": "Kd", "setting": "[2]", "result": 0.012, "unit": "nM"},
      {"measurement": "Kd", "setting": "[3]; 1 mM IPTG, described as wild-type affinity under these conditions", "result": "> 100", "unit": "nM"},
      {"measurement": "Kd", "setting": "[3]; no inducer, assay method not stated, refers to Falcon and Matthews 1999, cited from earlier work", "result": 0.004, "unit": "nM"}
    ]}
  ]
}
